From paper PMC4732765, “Long-Term Persistence of Bi-functionality Contributes to the Robustness of Microbial Life through Exaptation” (PLoS Genetics, 2016) come the findings set out here.

What all share (test): purified protein
Substrate in series [1]: O=C(O)c1ccccc1N[C@@H]1O[C@H](COP(=O)(O)O)[C@@H](O)[C@H]1O
It counts as biochemical, Desulfovibrio desulfuricans. As to conditions: 25 °C, TrpF reaction, PRA generated in situ from anthranilate and excess PRPP with yeast anthranilate phosphoribosyl transferase.

Substrate in series [2]: NC(=O)c1ncn([C@@H]2O[C@H](COP(=O)(O)O)[C@@H](O)[C@H]2O)c1N=CN[C@@H]1O[C@H](COP(=O)(O)O)[C@@H](O)[C@H]1O
Type of series: biochemical, Desulfovibrio desulfuricans. As to conditions: 25 °C, HisA reaction.

Substrate in series [3]: O=C(O)c1ccccc1N[C@@H]1O[C@H](COP(=O)(O)O)[C@@H](O)[C@H]1O
It counts as biochemical, synthetic construct. The note with it: 25 °C, TrpF reaction, PRA generated in situ from anthranilate and excess PRPP with yeast anthranilate phosphoribosyl transferase, enzyme shows hysteresis.

Substrate in series [4]: NC(=O)c1ncn([C@@H]2O[C@H](COP(=O)(O)O)[C@@H](O)[C@H]2O)c1N=CN[C@@H]1O[C@H](COP(=O)(O)O)[C@@H](O)[C@H]1O
Type of series: biochemical, synthetic construct. As to conditions: 25 °C, HisA reaction, enzyme shows hysteresis.

Substrate in series [5]: O=C(O)c1ccccc1N[C@@H]1O[C@H](COP(=O)(O)O)[C@@H](O)[C@H]1O
It counts as biochemical, Thermotoga maritima. The note with it: 25 °C, TrpF reaction, PRA generated in situ from anthranilate and excess PRPP with yeast anthranilate phosphoribosyl transferase.

Substrate in series [6]: NC(=O)c1ncn([C@@H]2O[C@H](COP(=O)(O)O)[C@@H](O)[C@H]2O)c1N=CN[C@@H]1O[C@H](COP(=O)(O)O)[C@@H](O)[C@H]1O
It counts as biochemical, Thermotoga maritima. The note with it: 25 °C, HisA reaction.

Substrate in series [7]: O=C(O)c1ccccc1N[C@@H]1O[C@H](COP(=O)(O)O)[C@@H](O)[C@H]1O
It counts as biochemical, Syntrophotalea carbinolica. As to conditions: 25 °C, TrpF reaction, PRA generated in situ from anthranilate and excess PRPP with yeast anthranilate phosphoribosyl transferase.

Substrate in series [8]: NC(=O)c1ncn([C@@H]2O[C@H](COP(=O)(O)O)[C@@H](O)[C@H]2O)c1N=CN[C@@H]1O[C@H](COP(=O)(O)O)[C@@H](O)[C@H]1O
Type of series: biochemical, Syntrophotalea carbinolica. As to conditions: 25 °C, HisA reaction.

B1: ddHisA (Desulfovibrio desulfuricans ATCC 27774) (protein)
chain: MIIFPAVDIQNGKAVRLKQGRAHESTVFAESPVDAARAWEEAGARWLHVVDLDGAFDGAAQSRRIVRDICAALAIPVQLGGGIRDMHTAEAYLEAGVSRLIIGTLALEQPTLFADMCRAFPGRVGVSLDAEGGRLKSRGWVEDTGMTVDTALPRLLDDGAAFVIYTDIERDGMQCGVNVAALEHLARLSTVPVIAAGGVATLEDIQKLYPLTLETSLMGAVSGRALYEGTLDLKEANAWIDARKNTPESA
notes: full-length hisA in pET24a (NdeI/XhoI), His-tag (HisTrap), E. coli T7 Express with pRARE
Consider B1, for which, in series [1], the Km is 161 µM, the kcat was determined as 0.0023 s⁻¹ and the kcat/Km turned out to be 14 M⁻¹ s⁻¹. Besides, in series [2], the Km is 2.8 µM, the kcat was determined as 1.3 s⁻¹ and the kcat/Km is 460000 M⁻¹ s⁻¹.

B2: CA-Bact-HisA (synthetic construct) (protein)
chain: MRIIPAIDLKDGRCVRLVQGDMEKATVYNDDPLEMAKQWVEQGAEWLHVVDLDGAFAGKPVNEDVIKEIAQKVSVKVQLGGGIRDLEDIEAYLDAGVDRVIIGTVAVKNPELVREMVEKYGERIVVGIDARDGMVAVKGWKETTEVKATDLAKRFEDAGVEAIIYTDIARDGMMQGPNIEAIRELAKAVSLPVIASGGVSSLEDIEALLAIEESGVAGVIVGKALYEGRLDLREALALAKKL
notes: synthetic gene in pET24a, His-tag (HisTrap), E. coli BL21-Gold (DE3)
On to B2, for which, in series [3], the Km is 3.2 µM, the kcat was found to be 0.00023 s⁻¹ and the kcat/Km is 70 M⁻¹ s⁻¹. In series [4], the Km stood at 0.5 µM, the kcat was 0.05 s⁻¹ and the kcat/Km is 100000 M⁻¹ s⁻¹.

B3: tmHisA (Thermotoga maritima MSB8) (protein)
chain: MLVVPAIDLFRGKVARMIKGRKENTIFYEKDPVELVEKLIEEGFTLIHVVDLSNAIENSGENLPVLEKLSEFAEHIQIGGGIRSLDYAEKLRKLGYRRQIVSSKVLEDPSFLKSLREIDVEPVFSLDTRGGRVAFKGWLAEEEIDPVSLLKRLKEYGLEEIVHTEIEKDGTLQEHDFSLTKKIAIEAEVKVLAAGGISSENSLKTAQKVHTETNGLLKGVIVGRAFLEGILTVEVMKRYAR
notes: full-length hisA in pET21a (NdeI/NotI), His-tag (HisTrap), E. coli BL21-CodonPlus-(DE3)-RIPL; heat step 70 °C
Turning to B3, in series [5], the Km turned out to be 60 µM. In series [6], the Km was determined as 5.6 µM, the kcat was 1 s⁻¹ and the kcat/Km amounted to 180000 M⁻¹ s⁻¹.

B4: pcHisA (Syntrophotalea carbinolica DSM 2380) (protein)
chain: MIVIPAIDLKEGRCVRLEQGLMEKDTVYNDNPGAQARSWQEQGGELLHIVDLDGAFAGVPRNRDAIRAIAEAVSIPTELGGGIRDLPTIEAYLELGIDRVILGTVAKENPELVREACRLFPGRIVVGIDARDGLVAVRGWADVTEKLATELAKEMEGFGVEAIIYTDIARDGMMGGPNLEATRALAESISVPVIASGGVSCLEDIARLMTIEDSGVTGVITGKALYTGSLDLREAVALTKGKA
notes: as for B1
Consider B4, for which, in series [7], the Km worked out at 303 µM, the kcat is 0.001 s⁻¹ and the kcat/Km was found to be 3 M⁻¹ s⁻¹. Also, in series [8], the Km is 1.8 µM, the kcat turned out to be 0.4 s⁻¹ and the catalytic efficiency (kcat/Km) came to 220000 M⁻¹ s⁻¹.

In general, Km refers to the concentration of substrate that gives half-maximal velocity. The kcat is the maximal rate divided by the concentration of active sites. By kcat/Km is commonly meant the second-order rate constant that governs catalysis at low substrate concentration.
